Source: article PMC7375649, “Varicella zoster virus encodes a viral decoy RHIM to inhibit cell death” (PLoS Pathogens, 2020)

B1: YPet-RIPK3_(387-518) (domain or fragment)
chain: TSSDSMAQPPQTPETSTFRNQMPSPTSTGTPSPGPRGNQGAERQGMNWSCRTPEPNPVTGRPLVNIYNCSGVQVGDNNYLTMQQTTALPTWGLAPSGKGRGLQHPPPVGSQEGPKDPEAWSRPQGWYNHSGK
notes: human RIPK3, RHIM-containing region, residues 387-518; source: E. coli BL21(DE3) pLysS, purified from inclusion bodies under denaturing conditions (Ni-NTA)
B2: YPet-ZBP1_(170-355) (domain or fragment)
chain: SGRRAKSASIIYQHNPINMICQNGPNSWISIANSEAIQIGHGNIITRQTVSREDGSAGPRHLPSMAPGDSSTWGTLVDPWGPQDIHMEQSILRRVQLGHSNEMRLHGVPSEGPAHIPPGSPPVSATAAGPEASFEARIPSPGTHPEGEAAQRIHMKSCFLEDATIGNSNKMSISPGVAGPGGVAGS
notes: human ZBP1, RHIM-containing region, residues 170-355; also called YPet-ZBP1 RHIM; source: E. coli BL21(DE3) pLysS, purified from inclusion bodies under denaturing conditions (Ni-NTA)

Molecular target: the molecule itself
Experiment: single molecule fluorescence confocal spectroscopy (two-colour coincidence); proteins alone or one mCherry-tagged and one YPet-tagged protein mixed, diluted out of 8 M urea to 0.35-0.7 uM in 25 mM NaH2PO4, 150 mM NaCl, 0.5 mM DTT, pH 7.4; room temperature; 488 and 561 nm lasers

Protein | binding result
B1 | binds
B2 | binds
